Measurements from US20210253725A1 (BIONTECH, published 2021).
Changes are numbered by the printed parent chain. Numbers in names are those of the source. Each block holds one binder with its values, some of them ahead of it.

Columns and labels:
[1] = target: T1, CD137 expressed on the cell surface of HT1080_4-1BB cells (human, UniProt Q07011 24-255); assay: HT1080_4-1BB cells, imaging; note: test concentration or dose not given here
T1 construct: whole, on cells; species not restated for the HT1080 transfectant
T1 sequence (Q07011 24-255): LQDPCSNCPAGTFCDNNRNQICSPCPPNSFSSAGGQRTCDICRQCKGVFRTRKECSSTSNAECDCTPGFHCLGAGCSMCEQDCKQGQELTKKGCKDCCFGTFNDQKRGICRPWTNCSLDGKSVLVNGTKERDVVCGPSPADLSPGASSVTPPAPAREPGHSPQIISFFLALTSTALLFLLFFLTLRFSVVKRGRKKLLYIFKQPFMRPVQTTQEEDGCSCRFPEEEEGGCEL

[2] = target: T1, CD137 expressed on the cell surface of …; assay: cell-based or functional assay
[3] = target: T2, CD137 protein (His-tagged, Sino Biological Inc. 10041-H08H) (human, UniProt Q07011 24-186); assay: ELISA, coated His-tagged CD137; note: test concentration or dose not given here
T2 construct: bought protein coated on ELISA plates; also called 4-1BB; TNFRSF9; not shown: His tag

[4] = target: CD134 expressed on the cell surface of HT1080_OX40 cells (human) (UniProt P43489); assay: HT1080_OX40 cells, imaging
Chain of CD134 expressed on the cell surface of HT1080_OX40 cells (human) (P43489 29-277): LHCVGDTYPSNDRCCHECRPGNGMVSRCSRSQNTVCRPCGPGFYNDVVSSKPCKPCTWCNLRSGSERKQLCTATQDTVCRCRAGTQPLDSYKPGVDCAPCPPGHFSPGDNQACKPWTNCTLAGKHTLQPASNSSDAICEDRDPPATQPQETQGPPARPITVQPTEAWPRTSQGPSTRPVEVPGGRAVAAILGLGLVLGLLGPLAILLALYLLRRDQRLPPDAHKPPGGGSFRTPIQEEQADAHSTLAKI

[5] = target: CD134 expressed on the cell surface of HT1080_OX40 cells (human) (UniProt P43489); assay: cell-based or functional assay
Throughout, for Functional assay Cross-linked by F(ab′)2 fragment IL-8: test concentration or dose not given here.
Throughout, for Functional assay IL-8: test concentration or dose not given here.

B2: P018.S.13.A.C02 (antibody, V domains shown)
VH: QSVEESGGRLVTPGTPLTLTCTVSGFSLSSYAMSWVRQAPGKGLEWIGIISTSGITYYASWAKGRFTISKTSTMVDLKITSPTTEDTATYFCARLNGFDDYVRYFDFWGLGTLVTVSS
VL: AIELTQTPSSVSAAVGGTVTINCQASESIASNLAWYQQKPGQPPKLLIYAASYLASGVPSRFKGSGSGTEYTLTISGVQSADAATYYCQSAFYVSSSDNAFGGGTEVVVK
notes: V regions on human Ig constant parts; also called AB137_6
Cellular binding assay [RFU] [1]: 8 RFU
Functional assay Cross-linked by F(ab′)2 fragment IL-8 [2]: 1.4 abs. corr.
Functional assay IL-8 [2]: 0.113 abs. corr.
ELISA [abs. corr.] [3]: 2.55 abs. corr.

B3: P018.S.05.A.G03 (antibody, V domains shown)
VH: QEQLVESGGGLVQPEGSLTVTCTASGFSFSNSYWMCWVRQAPGKGLEWIACIYLGSAGTTHHATWAKGRFTISKTTSTTVTLQMTSLTAADTATYFCARAGHDYWGAYHTLWGPGTLVTVSS
VL: DVVMTQTPASVSEPVGGSVTIKCQASQNIDNTLAWYQQKAGQPPKLLIYHASTLASGVPSRFRGSGSGTDFTLTISDLESADAATYYCQCPYYGSTYVYSFGGGTEVVVK
Cellular binding assay [RFU] [4]: 40 RFU
EC 50 (IL-8 release, cross-linked) [5]: 0.966 µg/mL
Functional assay Cross-linked by F(ab′)2 fragment IL-8 [5]: 2.39 abs. corr.
Functional assay IL-8 [5]: 0.032 abs. corr.

B7: P018.S.08.A.F03 (antibody, V domains shown)
VH: QSVEESGGRLVTPGTPLTLTCTASGFTISSYHMIWVRQAPGEGLEWIGDIYGGTATTDYASWAKGRFTISKTSTTVDLKMTSLTTEDTATYFCARARYSGGSYANYVFNLWGQGTLVTVSS
VL: DIVMTQTPASVEAAVGGTVTIKCQASQSISSYLAWYQQKPGQPPKLLIYRTSTLESGVPSRFKGSGSGTEFTLTISDLESADAATYYCQGYDWSSSNRYDNTFGGGTEVVVK
notes: V regions on human Ig constant parts; also called AB137_3
Cellular binding assay [RFU] [1]: 7 RFU
Functional assay Cross-linked by F(ab′)2 fragment IL-8 [2]: 1.36 abs. corr.
Functional assay IL-8 [2]: -0.346 abs. corr.
ELISA [abs. corr.] [3]: 2.33 abs. corr.

B8: P018.S.13.A.A06 (antibody, V domains shown)
VH: QSVEESGGRLVTPGTPLTLTCTASGFTISDFHVTWVRQAPGKGLEWIGTIITSASTTAYATWARGRFTISKSSTTVNLKIVSPTTEDTATYFCARSTYTDTSGYYFDFWGQGTLVTVSS
VL: AQVLTQTASPVSAAVGGTVIINCQSSQSIYNGNRLSWYQQKPGQPPKLLIYSASTLASGVSSRFKGSGSGTQFTLAISDVQSDDAATYYCLGSYDCDSADCFAFGGGTEVVVE
notes: V regions on human Ig constant parts; also called AB137_5
Cellular binding assay [RFU] [1]: 38 RFU
Functional assay Cross-linked by F(ab′)2 fragment IL-8 [2]: 1.71 abs. corr.
Functional assay IL-8 [2]: -0.153 abs. corr.
ELISA [abs. corr.] [3]: 3.39 abs. corr.

B10: P018.S.14.A.A04 (antibody, V domains shown)
VH: QSLEESGGRLVTPGTPLTLTCTVSGFSLNDYWMSWVRQAPGKGLEWIGYIDVGGSLYYASWAKGRFTISRTSTTVDLKMTSLTTEDTATYFCARGGLTYGFDLWGPGTLVTVSS
VL: DIVMTQTPASVSEPVGGTVTINCQASEDISSYLAWYQQKPGQRPKRLIYGASDLASGVPSRFSASGSGTEYALTISDLESADAATYYCHYYATISGLGVAFGGGTEVVVK
notes: V regions on human Ig constant parts; also called AB137_9
Cellular binding assay [RFU] [1]: 81 RFU
Functional assay Cross-linked by F(ab′)2 fragment IL-8 [2]: 0.972 abs. corr.
Functional assay IL-8 [2]: 0.785 abs. corr.
ELISA [abs. corr.] [3]: 3.44 abs. corr.

B11: P018.S.13.A.A05 (antibody, V domains shown)
VH: QSLEESGGRLVTPGTPLTLTCTASGFSLSRYDMSWVRQAPGKGLEYIGVISSSGGTNYANWAKGRFTISKTSTTVDLKITSPTTEDTATYFCAREGDYWDFNLWGPGTLVTVSS
VL: AQVLTQTPSSVSAAVGGTVTINCQASQSISNLLAWYQQKPGQPPKLLIYGASTLASGVPSRFSGSGSGTEFTLTISDLESDDAATYYCAGGFPGLDTVAAFGGGTEAVVT
notes: V regions on human Ig constant parts; also called AB137_4
Cellular binding assay [RFU] [1]: 0 RFU
Functional assay Cross-linked by F(ab′)2 fragment IL-8 [2]: 2.57 abs. corr.
Functional assay IL-8 [2]: 0.559 abs. corr.
ELISA [abs. corr.] [3]: 0.687 abs. corr.

The remaining lines, values ahead:

Cellular binding assay [RFU] [1]: 19 RFU
Functional assay Cross-linked by F(ab′)2 fragment IL-8 [2]: 1.14 abs. corr.
Functional assay IL-8 [2]: 0.222 abs. corr.
ELISA [abs. corr.] [3]: 2.07 abs. corr.
B1: P018.S.14.A.G03 (antibody, V domains shown)
VH: QSLEESGGRLVTPGTPLTLTCTVSGIDLSSYHMCWVRQAPGKGLEYIGYIAYGGNTYYANWAKGRFTISKTSTTVDLRITSPTTEDTATYFCARGYSEDSYWGLWGPGTLVTVSS
VL: AYDMTQTPASVEAAVGGTVTIKCQASQNIENYLAWYQQKPGQPPKLLIYDTSKLTSGVPSRFSGSGSGTDFTLTISGVQSDDAATYYCQQDYGIIFVDNIFGGGTEVVVK
notes: V regions on human Ig constant parts; also called AB137_11

Cellular binding assay [RFU] [1]: 13 RFU
Functional assay Cross-linked by F(ab′)2 fragment IL-8 [2]: 0.789 abs. corr.
Functional assay IL-8 [2]: -0.164 abs. corr.
ELISA [abs. corr.] [3]: 1.73 abs. corr.
B4: P018.S.13.A.G03 (antibody, V domains shown)
VH: QSLEESGGRLVTPGTPLTLTCTASGFSLSSYDVSWVRQAPGKGLEYIGFIGSDGSAHYATWVKGRFTISKTSTTVDLKITSPTTEDTATYFCARDWNDYWAHDLWGPGTLVTVSS
VL: AQVLTQTTSPVSAAVGGTVTINCQASQIVTSKSALSWYQQKPGQPPRLLIYKASTLASGVPSRFSGSGSGTQFTLTISDLESDDAATYYCAGGYYNSGDLNPFGGGTEVVVK
notes: V regions on human Ig constant parts; also called AB137_7

Cellular binding assay [RFU] [1]: 1 RFU
Functional assay Cross-linked by F(ab′)2 fragment IL-8 [2]: 1.52 abs. corr.
Functional assay IL-8 [2]: -0.011 abs. corr.
ELISA [abs. corr.] [3]: 2.9 abs. corr.
B5: P018.S.14.A.D06 (antibody, V domains shown)
VH: QSVEESGGRLVTPGTPLTLTCTVSGFSLSTYAMIWVRQAPGKGLEWIGVVYDNGYISHATWVKGRFTISKTSTTVGLEITSPTTEDTATYFCARSADGSWSTYFNLWGQGTLVTVSS
VL: DIVMTQTPASVEAAVGGTVTIKCQASESISNYLAWYQQKPGQPPKLLIYKASTLASGVSSRFKGSGSGTEFTLTISDLESADAATYYCQTNYCCSSSDNGFAFGGGTEVVVK
notes: V regions on human Ig constant parts; also called AB137_10

Cellular binding assay [RFU] [1]: 46 RFU
Functional assay Cross-linked by F(ab′)2 fragment IL-8 [2]: 1.55 abs. corr.
Functional assay IL-8 [2]: 0.368 abs. corr.
ELISA [abs. corr.] [3]: 3.42 abs. corr.
B6: P018.S.08.A.A04 (antibody, V domains shown)
VH: QSVEESGGRLVTPGTPLTLTCTVSGFSLSSYAVSWVRQAPGKGLEWIGVIWNNGATHYATWAKGRFTISKASTTVDLKVTSPTTEDTATYFCARSANDAWSTYSDLWGQGTLVTVSS
VL: DIVMTQTPASVEAAVGGTVTIKCQASQTITNYLSWYQQKPGQPPKLLIYKASTLTSGVSSRFKGSGSGTEFTLTISDLESDDAATYYCQNYYYGSSSGYGFVFGGGTEVVVK
notes: V regions on human Ig constant parts; also called AB137_1

Cellular binding assay [RFU] [1]: 9 RFU
Functional assay Cross-linked by F(ab′)2 fragment IL-8 [2]: 2.02 abs. corr.
Functional assay IL-8 [2]: -0.304 abs. corr.
ELISA [abs. corr.] [3]: 3.05 abs. corr.
B9: P018.S.08.A.E03 (antibody, V domains shown)
VH: QSVEESGGRLVTPGTPLTLTCTVSGFSLTYYAVTWVRQPPGKGLEWIGVIYDNGATAFATWAKGRFTMSKNSTTVALKVTSPTTEDTATYFCARSANNAWSTYSNLWGQGTLVTVSS
VL: DIVMTQTPSSVSAAVGGTVTINCQASEDISSYLSWYQQKLGQPPKLLIYKASTLESGVPSRFKGSGSGTEYTLTISDLESDDAATYYCQSYYSGSISGYGFVFGGGTGVVVK
notes: V regions on human Ig constant parts; also called AB137_2

Cellular binding assay [RFU] [1]: 1 RFU
Functional assay Cross-linked by F(ab′)2 fragment IL-8 [2]: 1.8 abs. corr.
Functional assay IL-8 [2]: -0.179 abs. corr.
ELISA [abs. corr.] [3]: 0.577 abs. corr.
B12: P018.S.13.A.G04 (antibody, V domains shown)
VH: B11 VH with R30S, V49Y, G55N, N57Y, N60S, G64S
VL: B11 VL with P43R, K45R, G50R, S63K, D81E, V98G, A100T
notes: V regions on human Ig constant parts; also called AB137_8

Cellular binding assay [RFU] [1]: 6 RFU
Functional assay Cross-linked by F(ab′)2 fragment IL-8 [2]: 2.19 abs. corr.
Functional assay IL-8 [2]: 2.02 abs. corr.
ELISA [abs. corr.] [3]: 2.97 abs. corr.
B13: P018.S.14.A.H01 (antibody, V domains shown)
VH: QSVEESGGRLVTPGTPLTLTCTVSGFSLSDYYMTWVRQAPGKGLEYIGIMSGSGSTYYASWAKGRFTISKTSSTTLELKITSPTTEDTAIYFCARDGDYAGWGYATGAFDPWGPGTLVTVSS
VL: AAVLTQTPSPVSAAVGGTVTISCQASQSVVGNSLLSWFQKKPGQPPKLLIYSASSLASGVPSRFKGSGSGTQFTLTISDLESDDAATYYCTGRYNSDTDTFVFGGGTEVVVK
notes: V regions on human Ig constant parts; also called AB137_12
